The text below walks through data of the Immune Epitope Database (IEDB).

The target in one assay is HLA-A*02:06. Put plainly: IEDB peptide-MHC binding, purified MHC/direct/fluorescence; filed as Kd, often an IC50 or EC50 that approximates it; ≥ and ≤ were set here for values at or beyond the usual limits of such assays. The conditions noted are these: source organism: Vibrio vulnificus CMCP6.
For another assay, the target named is HLA-A*02:12. Described as above. The conditions noted are these: source organism: Vibrio vulnificus CMCP6.
Assay [1] addresses HLA-A*03:01. The description is as above. The conditions noted are these: source organism: Vibrio vulnificus CMCP6.
In another assay the target is HLA-A*24:03. The assay is described as above. The conditions noted are these: source organism: Vibrio vulnificus CMCP6.
A further assay concerns the target HLA-A*26:01. The assay is described as above. The conditions noted are these: source organism: Vibrio vulnificus CMCP6.
The target in a further assay is HLA-B*15:17. The assay is described as above. Particulars: source organism: Vibrio vulnificus CMCP6.
A further assay deals with HLA-B*40:01. Described as above. The conditions noted are these: source organism: Vibrio vulnificus CMCP6.
For assay [2], the target named is HLA-B*51:01. Described as above. Particulars: source organism: Vibrio vulnificus CMCP6.
Assay [3] deals with HLA-B*57:01. Described as above. Particulars: source organism: Vibrio vulnificus CMCP6.
Assay [4] addresses HLA-A*01:01. Put plainly: IEDB peptide-MHC binding, purified MHC/competitive/fluorescence; filed as Kd, often an IC50 or EC50 that approximates it; ≥ and ≤ were set here for values at or beyond the usual limits of such assays. Particulars: source organism: Vibrio vulnificus CMCP6.
For assay [5], the target named is HLA-A*02:01. The assay is described as above. Particulars: source organism: Vibrio vulnificus CMCP6.
Assay [6] deals with HLA-A*11:01. The description is as above. Particulars: source organism: Vibrio vulnificus CMCP6.
The target of a further assay is HLA-A*23:01. The description is as above. The conditions noted are these: source organism: Vibrio vulnificus CMCP6.
Assay [7] deals with HLA-A*29:02. Described as above. The conditions noted are these: source organism: Vibrio vulnificus CMCP6.
Another assay has as its target HLA-A*30:01. The assay is described as above. The conditions noted are these: source organism: Vibrio vulnificus CMCP6.
A further assay concerns the target HLA-A*66:01. The description is as above. The conditions noted are these: source organism: Vibrio vulnificus CMCP6.
Assay [8] addresses HLA-B*07:02. The description is as above. The conditions noted are these: source organism: Vibrio vulnificus CMCP6.
The target of assay [9] is HLA-B*08:01. The assay is described as above. Particulars: source organism: Vibrio vulnificus CMCP6.
The target of assay [10] is HLA-B*14:02. The description is as above. The conditions noted are these: source organism: Vibrio vulnificus CMCP6.
The target of assay [11] is HLA-B*18:01. The assay is described as above. Particulars: source organism: Vibrio vulnificus CMCP6.
The target of another assay is HLA-B*27:05. The assay is described as above. Particulars: source organism: Vibrio vulnificus CMCP6.
Another assay deals with HLA-B*39:01. The description is as above. The conditions noted are these: source organism: Vibrio vulnificus CMCP6.
In the next assay the target is HLA-B*44:02. The description is as above. The conditions noted are these: source organism: Vibrio vulnificus CMCP6.
Assay [12] addresses HLA-B*53:01. The assay is described as above. The conditions noted are these: source organism: Vibrio vulnificus CMCP6.
Assay [13] addresses HLA-B*58:01. The description is as above. Particulars: source organism: Vibrio vulnificus CMCP6.
For assay [14], the target named is HLA-A*02:01. The experiment in a line: IEDB peptide-MHC binding, purified MHC/competitive/radioactivity; filed as Kd, often an IC50 or EC50 that approximates it; ≥ and ≤ were set here for values at or beyond the usual limits of such assays. The conditions noted are these: source organism: Homo sapiens.
The target of another assay is HLA-A*02:07. The assay is described as above. The conditions noted are these: source organism: Homo sapiens.
Assay [15] addresses HLA-A*29:02. The description is as above. The conditions noted are these: source organism: Homo sapiens.
The target of assay [16] is HLA-B*57:01. The assay is described as above. The conditions noted are these: source organism: Homo sapiens.
Assay [17] concerns the target HLA-B*58:01. The assay is described as above. Particulars: source organism: Homo sapiens.
The target in assay [18] is HLA-A*01:01. The experiment in a line: IEDB peptide-MHC binding, purified MHC/competitive/fluorescence; ≥ and ≤ were set here for values at or beyond the usual limits of such assays. The conditions noted are these: source organism: Homo sapiens.
Assay [19] deals with HLA-A*02:01. Described as above. The conditions noted are these: source organism: Homo sapiens.
The target of assay [20] is HLA-A*03:01. Described as above. The conditions noted are these: source organism: Homo sapiens.
The target in assay [21] is HLA-A*11:01. Described as above. Particulars: source organism: Homo sapiens.
A further assay deals with HLA-A*24:02. The assay is described as above. Particulars: source organism: Homo sapiens.
In the next assay the target is HLA-A*25:01. The description is as above. The conditions noted are these: source organism: Homo sapiens.
Assay [22] addresses HLA-A*29:02. The description is as above. The conditions noted are these: source organism: Homo sapiens.
The next assay concerns the target HLA-A*31:01. The description is as above. The conditions noted are these: source organism: Homo sapiens.
In the next assay the target is HLA-A*68:02. The description is as above. The conditions noted are these: source organism: Homo sapiens.
The target of assay [23] is HLA-B*07:02. The description is as above. Particulars: source organism: Homo sapiens.
Assay [24] deals with HLA-B*08:01. The description is as above. The conditions noted are these: source organism: Homo sapiens.
Assay [25] deals with HLA-B*14:02. The description is as above. Particulars: source organism: Homo sapiens.
Assay [26] concerns the target HLA-B*18:01. The description is as above. The conditions noted are these: source organism: Homo sapiens.
For the next assay, the target named is HLA-B*35:01. The assay is described as above. The conditions noted are these: source organism: Homo sapiens.
A further assay concerns the target HLA-B*37:01. The assay is described as above. The conditions noted are these: source organism: Homo sapiens.
A further assay has as its target HLA-B*40:02. Described as above. The conditions noted are these: source organism: Homo sapiens.
For a further assay, the target named is HLA-B*44:03. The assay is described as above. The conditions noted are these: source organism: Homo sapiens.
Assay [27] has as its target HLA-B*51:01. Described as above. Particulars: source organism: Homo sapiens.
Assay [28] concerns the target HLA-B*53:01. Described as above. Particulars: source organism: Homo sapiens.
In assay [29] the target is HLA-B*58:01. The description is as above. Particulars: source organism: Homo sapiens.
A further assay concerns the target HLA-C*14:02. Put plainly: IEDB peptide-MHC binding, purified MHC/direct/fluorescence; filed as Kd, often an IC50 or EC50 that approximates it; ≥ and ≤ were set here for values at or beyond the usual limits of such assays. Particulars: source organism: Homo sapiens.

In general, Kd refers to the free concentration of one partner at which half of the binding sites on the other are occupied at equilibrium, for simple one-to-one binding. For KQIVIINPM, the Kd in the assay with HLA-A*02:06 is 0.002 µM; with HLA-A*02:12 it was 0.064 µM; with HLA-A*03:01 [1] it was not below 20 µM; with HLA-A*24:03 it was 0.135 µM; with HLA-A*26:01, not below 20 µM; with HLA-B*15:17 it was not below 20 µM. Further, the Kd with HLA-B*40:01 was 0.238 µM; with HLA-B*51:01 [2], not below 20 µM; with HLA-B*57:01 [3] it was not below 20 µM; in the assay with HLA-A*01:01 [4], not below 5 µM; with HLA-A*02:01 [5] it was not below 5 µM; with HLA-A*11:01 [6], not below 5 µM. Moreover, the Kd in the assay with HLA-A*23:01, with HLA-A*29:02 [7], with HLA-A*30:01, with HLA-A*66:01, with HLA-B*07:02 [8] and with HLA-B*08:01 [9] was not below 5 µM throughout. Also, the Kd with HLA-B*14:02 [10] is not below 5 µM; in the assay with HLA-B*18:01 [11], not below 5 µM; in the assay with HLA-B*27:05, 0.0389 µM; with HLA-B*39:01 it was not below 5 µM; with HLA-B*44:02, not below 5 µM; with HLA-B*53:01 [12], not below 5 µM. For the same sequence, in the assay with HLA-B*58:01 [13], the Kd was not below 5 µM.

As to YMIDPSGVSY, the Kd with HLA-A*02:01 [14] is 0.651 µM; in the assay with HLA-A*02:07, 12.7 µM; in the assay with HLA-A*29:02 [15] it was 0.0193 µM; in the assay with HLA-B*57:01 [16], not below 31.6 µM; with HLA-B*58:01 [17], 0.589 µM.

Broadly, the IC50 is the concentration at which inhibition is half-maximal. A lower IC50 goes with greater potency in that assay. In the case of FPHTELANL, the IC50 in the assay with HLA-A*01:01 [18], with HLA-A*02:01 [19], with HLA-A*03:01 [20], in the assay with HLA-A*11:01 [21], with HLA-A*24:02 and in the assay with HLA-A*25:01 was not below 20 µM in each case. The IC50 in the assay with HLA-A*29:02 [22] is not below 20 µM; with HLA-A*31:01, not below 20 µM; with HLA-A*68:02, 0.224 µM; in the assay with HLA-B*07:02 [23], 0.112 µM; with HLA-B*08:01 [24] it was 1.08 µM; in the assay with HLA-B*14:02 [25], not below 20 µM. Also, the IC50 in the assay with HLA-B*18:01 [26] is 0.422 µM; with HLA-B*35:01, 0.0085 µM; with HLA-B*37:01 it was not below 20 µM; with HLA-B*40:02, 0.734 µM; with HLA-B*44:03, not below 20 µM; in the assay with HLA-B*51:01 [27] it was 0.685 µM. Also, the IC50 with HLA-B*53:01 [28] is 0.221 µM; with HLA-B*58:01 [29], not below 20 µM. This sequence yielded a Kd with HLA-C*14:02 of 0.792 µM.
